Results on 1 substance are retold here after publication PMC5643395.

In this series the test system is histone octamer WT. In words: ensemble FRET (microplate), salt-induced disassembly. To be noted: Reconstitution by dialysis from 2 M to 5 mM NaCl in 10 mM Tris-HCl, 0.1 mM EDTA; FRET over NaCl titration (FRET buffer and temperature not in the material) ….

Take Widom 601 170 bp: the K half was 800 mM NaCl.
